Series [1] concerns the molecule itself. As to the kind of experiment: negative-stain transmission electron microscopy; 0.1 mg/ml LipL41 on a glow-discharged copper grid, 2% uranyl acetate; class averages with EMAN2.
Series [2] concerns the molecule itself. As to the kind of experiment: SEC + AUC; LipL41-C100 in solution; data not shown.

B1: LipL41 C140A/C220A (natural protein)
chain: AATVDVEYPVFPKDKEGRALQKFLGTIRNVGLAVEPPKKSLWEAIFGEGSSFIDQMPSKVFEAFDKESYYKLTDLSKRADILNEATLSLTGITKSRAKIGNLIGAEAILYIGYQKPYTEASTENKIDAVAAGIKVAGFVASAATGKDVNTGNDPVSKPTGVRMMLIPLDATLIKVETGEVKKAVVSSPAKIFNSVGNLEAPSILDSFGQGLDEAAAYIKGRLSPIVKTERIKVFVKDEDEEVKELLQEGYEEIVGETPSFKKAKEAWEKADKKAKGQSWGAKANLATYYFSIGDFEKSIKLYEEAMKLKDADKSYLRELRKRVEATFAVDESNAK
notes: also called cysteine double mutant; HRM-mutated LipL41; source: E. coli, expression and purification similar to that of the wildtype
Consider B1, for which the binding result in series [1] is “binds”.

B2: LipL41 C140A (natural protein)
chain: AATVDVEYPVFPKDKEGRALQKFLGTIRNVGLAVEPPKKSLWEAIFGEGSSFIDQMPSKVFEAFDKESYYKLTDLSKRADILNEATLSLTGITKSRAKIGNLIGAEAILYIGYQKPYTEASTENKIDAVAAGIKVAGFVASAATGKDVNTGNDPVSKPTGVRMMLIPLDATLIKVETGEVKKAVVSSPAKIFNSVGNLECPSILDSFGQGLDEAAAYIKGRLSPIVKTERIKVFVKDEDEEVKELLQEGYEEIVGETPSFKKAKEAWEKADKKAKGQSWGAKANLATYYFSIGDFEKSIKLYEEAMKLKDADKSYLRELRKRVEATFAVDESNAK
notes: also called HRM-mutated LipL41; source: E. coli, expression and purification similar to that of the wildtype
As to B2, the binding result in series [1] was “binds”.

B3: LipL41 C220A (natural protein)
chain: AATVDVEYPVFPKDKEGRALQKFLGTIRNVGLAVEPPKKSLWEAIFGEGSSFIDQMPSKVFEAFDKESYYKLTDLSKRADILNEATLSLTGITKSRAKIGNLIGAEAILYIGYQKPYTECSTENKIDAVAAGIKVAGFVASAATGKDVNTGNDPVSKPTGVRMMLIPLDATLIKVETGEVKKAVVSSPAKIFNSVGNLEAPSILDSFGQGLDEAAAYIKGRLSPIVKTERIKVFVKDEDEEVKELLQEGYEEIVGETPSFKKAKEAWEKADKKAKGQSWGAKANLATYYFSIGDFEKSIKLYEEAMKLKDADKSYLRELRKRVEATFAVDESNAK
notes: as for B2
On to B3, for which the binding result in series [1] is given as “binds”.

B4: recombinant LipL41 (Ala21 - Lys355) with an N-terminal His6-tag (natural protein)
chain: AATVDVEYPVFPKDKEGRALQKFLGTIRNVGLAVEPPKKSLWEAIFGEGSSFIDQMPSKVFEAFDKESYYKLTDLSKRADILNEATLSLTGITKSRAKIGNLIGAEAILYIGYQKPYTECSTENKIDAVAAGIKVAGFVASAATGKDVNTGNDPVSKPTGVRMMLIPLDATLIKVETGEVKKAVVSSPAKIFNSVGNLECPSILDSFGQGLDEAAAYIKGRLSPIVKTERIKVFVKDEDEEVKELLQEGYEEIVGETPSFKKAKEAWEKADKKAKGQSWGAKANLATYYFSIGDFEKSIKLYEEAMKLKDADKSYLRELRKRVEATFAVDESNAK
notes: also called LipL41 wildtype; pRSET-LipL41; source: E. coli BL21(DE3), purified (Ni-NTA); copies: 36
Consider B4, for which the “stoichiometry N” value in series [1] is 36.

B5: LipL41-C100 with a TPR-containing fragment of residues 256-355 (domain or fragment)
chain: KDEDEEVKELLQEGYEEIVGETPSFKKAKEAWEKADKKAKGQSWGAKANLATYYFSIGDFEKSIKLYEEAMKLKDADKSYLRELRKRVEATFAVDESNAK
notes: source: E. coli, expression and purification similar to that of the wildtype
In the case of B5, the “stoichiometry N” value in series [2] was determined as 2.

One may read the stoichiometry N as a count of units in the complex or per binding partner.

Source of the values: article PMC3861479, “LipL41, a Hemin Binding Protein from Leptospira santarosai serovar Shermani” (PLoS ONE, 2013).
